Test results taken from article PMC4490436.
No end group written: not given here. *: point of attachment. OAll = C=CCO*

Columns and labels:
[1] = biological target: CXCR4 receptor (human (endogenous in CCRF-CEM)) (UniProt P61073)
[2] = biological target: CXCR4 receptor (human (endogenous in CCRF-CEM)) (UniProt P61073); remark: listed apart in the source

Chain of UniProt P61073 (P61073 whole entry): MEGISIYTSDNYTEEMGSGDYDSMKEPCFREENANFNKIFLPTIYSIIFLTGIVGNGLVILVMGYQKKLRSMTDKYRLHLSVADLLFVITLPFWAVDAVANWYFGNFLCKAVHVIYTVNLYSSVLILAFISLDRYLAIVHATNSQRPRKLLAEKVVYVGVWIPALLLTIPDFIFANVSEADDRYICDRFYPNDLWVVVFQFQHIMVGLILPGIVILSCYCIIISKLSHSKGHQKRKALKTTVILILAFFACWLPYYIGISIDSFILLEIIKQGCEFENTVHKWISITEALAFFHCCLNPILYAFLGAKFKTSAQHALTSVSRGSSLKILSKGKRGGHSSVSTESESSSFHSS

| increase of the cAMP level in CCRF-CEM cells in the presence of CXCL12 (100 ng/mL) and forskolin (1 uM); PepE at 1 and 10 uM (20% at 1 uM), dose dependent [1] [%] | migration index of CCRF-CEM cells towards CXCL12 (100 ng/mL) in a Transwell assay; 1.75-fold without peptide [2] [fold] | Binder |
| --- | --- | --- |
| 65 | 1.35 | YGECPCE-OAll (cysteine pairing not given here) [PepE] |
| – | 1.55 | YGECPCK-OAll (cysteine pairing not given here) [PepK] |
